What was measured:
[1] = molecular target: ephrin-B2-Fc (extracellular region of murine ephrin-B2, Fc fusion) (murine) (UniProt P52800); assay: SEC; Superdex 200 FPLC of the EphB6-ECD/ephrin-B2 complex, micromolar concentration range
[2] = molecular target: ephrin-B2-Fc (extracellular region of murine ephrin-B2, Fc fusion) (murine) (UniProt P52800); assay: BLI; BLItz instrument; Protein-A biosensor loaded with 50 ug/ml purified Fc-tagged ephrin-B2, washed with HBS; EphB6-ECD at 100 nM and 1 uM, association and dissociation 3 min each; apparent Kd
ephrin-B2 (Homo sapiens) = ephrin-B2 (Homo sapiens) (UniProt P52799); settings: cited from earlier work
UniProt P52799, sequence (P52799 28-229): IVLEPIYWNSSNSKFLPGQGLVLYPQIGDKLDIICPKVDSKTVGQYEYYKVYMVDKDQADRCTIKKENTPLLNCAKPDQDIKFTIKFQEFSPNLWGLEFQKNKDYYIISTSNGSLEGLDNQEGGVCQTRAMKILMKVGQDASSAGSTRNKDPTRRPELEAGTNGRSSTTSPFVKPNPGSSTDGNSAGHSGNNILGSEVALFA

Row | stoichiometry N [1] | Kd [2] | Substance | Kd (ephrin-B2 (Homo sapiens))
1 | 1 | 88.5 nM | EphB6 receptor ectodomain (EphB6-ECD) (from UniProt O15197 32-594) (domain or fragment) | 
2 |  |  | EphB2 (from UniProt P29323) | 8.6 nM
